According to patent US20220403031A1:

Tests used:
OX40.his = assay: non-specific binding ELISA; antigen coated at 2 ug/mL, antibody at 10 ug/ml
[1] = biological target: HER3.his (Homo sapiens (Human)) (UniProt P21860); assay: as above
[2] = biological target: 4-1BB.his (Homo sapiens (Human)) (UniProt Q07011); assay: as above
[3] = biological target: PD-1.his (Homo sapiens (Human)) (UniProt Q15116); assay: as above
[4] = biological target: human PD-L1 on CHO-K1 cells (W315-CHO-K1.hPro1.C11) (human) (UniProt Q9NZQ7); assay: FACS affinity on human PD-L1 cells, quantitative beads; parameters: Bmax: unit not given here
Sequence of human PD-L1 on CHO-K1 cells (W315-CHO-K1.hPro1.C11) (human) (Q9NZQ7 19-290): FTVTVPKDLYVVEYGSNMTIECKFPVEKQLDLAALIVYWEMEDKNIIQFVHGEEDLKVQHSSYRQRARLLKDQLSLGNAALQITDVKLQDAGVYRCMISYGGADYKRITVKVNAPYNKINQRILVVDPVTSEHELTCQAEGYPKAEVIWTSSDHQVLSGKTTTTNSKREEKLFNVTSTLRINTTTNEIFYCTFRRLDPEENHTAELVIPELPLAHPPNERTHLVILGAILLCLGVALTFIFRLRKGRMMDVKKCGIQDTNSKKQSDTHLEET

Sequence of OX40.his (P43489 29-214): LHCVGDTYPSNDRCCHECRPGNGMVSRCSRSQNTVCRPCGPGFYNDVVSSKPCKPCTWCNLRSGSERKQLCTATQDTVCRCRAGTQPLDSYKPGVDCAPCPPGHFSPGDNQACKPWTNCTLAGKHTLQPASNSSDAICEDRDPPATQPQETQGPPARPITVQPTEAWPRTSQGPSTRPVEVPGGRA
Sequence of PD-1.his (Homo sapiens (Human)) (Q15116 25-170 limits assumed): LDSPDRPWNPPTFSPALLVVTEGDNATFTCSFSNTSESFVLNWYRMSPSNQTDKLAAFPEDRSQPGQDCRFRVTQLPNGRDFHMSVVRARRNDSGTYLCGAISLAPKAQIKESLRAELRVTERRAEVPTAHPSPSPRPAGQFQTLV
Sequence of 4-1BB.his (Homo sapiens (Human)) (Q07011 24-186 limits assumed): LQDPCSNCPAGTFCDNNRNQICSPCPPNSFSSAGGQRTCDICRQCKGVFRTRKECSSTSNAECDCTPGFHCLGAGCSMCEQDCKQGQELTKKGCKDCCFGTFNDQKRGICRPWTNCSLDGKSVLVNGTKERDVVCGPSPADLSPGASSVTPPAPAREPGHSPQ

| Binder | Absorbance at 450 nm (OX40.his) | Absorbance at 450 nm [1] | Absorbance at 450 nm [2] | Absorbance at 450 nm [3] | Bmax [4] | Kd [4] [nM] |
| --- | --- | --- | --- | --- | --- | --- |
| AP3R2-1A3-z12-hIgG4 (Fc fusion, not shown: a dimerising Fc or GST) EVQLVESGGGLVQPGGSLRLSCAASGHFSNLAVNWFRQAPGKERELVAGILWSGGSTFYADSVKGRFTISRGNAENMLYLQMNSLRAEDTAVYYCNTGTNWGQGTLVTVSS | 0.06 | 0.07 | 0.07 | 0.06 | – | – |
| BMK9.Fc(IgG4) (Benchmark antibody 9, variable region of KN035 conjugated with human IgG4 constant region) (Fc fusion, INN chains, looked up, VHH-Fc IgG4) VH: QVQLVESGGGLVQPGGSLRLSCAASGKMSSRRCMAWFRQAPGKERERVAKLLTTSGSTYLADSVKGRFTISRDNSKNTVYLQMNSLRAEDTAVYYCAADSFEDPTCTLVTSSGAFQYWGQGTLVTVSS | – | – | – | – | 2.8e-10 | 0.24 |
